Measurements published in the RNAGym collection of RNA variant scans (doi:10.1073/pnas.2313332121).

B1: TPR t1 (parent)
chain: GACCAAUCUGCCCUCAGAGCUCGAGAACAUCUUCGGAUGCAGAGGAGGCAGGCUUCGGUGGCGCGAUAGCGCCAACGUCCUCAACCUCCAAUGCAUCCCACCACAUGAUGAUGCCUGAAGAGCCUUGGUUUUUUG

Variants of: B1
Assay: polymerase ribozyme fitness, log enrichment relative to wild type (log ratio); higher = more active; in vitro selection for triplet polymerase activity
Summary of the method: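 Streptavidin-bead capture of gel-excised extended constructs, followed by RT-PCR, closed a single triplicate in vitro selection round. That round began by annealing PCR-built, transcribed mutant libraries of each subunit of a heterodimeric triplet polymerase ribozyme with a biotinylated primer, the partner subunit and triplets, then incubating them frozen at −7 °C. After Illumina sequencing of inputs and outputs, genotypes needed ≥10 input reads and ≥1 read per output. Fitness is the base-2 logarithm of genotype enrichment over wild-type enrichment, using inverse-variance-weighted replicate averages.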

Variant	polymerase ribozyme fitness (log ratio)
GACCAAUCCGCCCUCAGAGCUCGAGAACAUCUUCGGAUGCAGAGGAGGCAGGCUUCGGUGGCGCGAUAGUGCCAACGUCCUCAACCUCCAAUGCAUCCCACGACAUGAUGAUGCCUGAAGAGCCUUGGUUUUUUG [U9C C70U C102G]	-6.28
GACCAAUCUGCCCUCAGAGCUCGAGAACAUCUUCGGAUGCAGAGGAGGCAGGCUUCGGUGGCGCGAUAGAGCCAACGUCCUCAACCUCAAAUGCAUCCCACCAUAUGAUGUUACCUGAAGAGCCUUCGUUUUUUG [C70A C89A C104U A111U G113A G127C]	-6.35
GACCAAUCUGCCCUCAGAGCUCGAGAACAUCUUCGGAUGCAGAGGAGGCAGGCUUCGGUGGCGCGAUAGCGCCAACGUCCUCAACCUCCGAUGCAUCCCACAACAUGAUGAUGCCUGAAGAGCCUUGGUUUUUUG [A90G C102A]	-1.25
GACCAAUCUGCCCUCAGAGCUCGAGAACAUCUUCGGAUGCAGAGGAGGCAGGCUUCGGUGGCGCGAUAGCGCCAACGUCCUCAACCUCCAAUGCAUCCCACCACAUGAUGAUGCCUGAUGAGCCUUGCUUUUUUG [A119U G128C]	-2.46
GACCAAUCUGCCCUCAGAGCUCGAGAACAUCUUCGGAUGCAGAGGAGGCAGGCUUCGGUGGCGCGAUAGCACCAACGUCCUAAACCUCUAAUGCAUCCCACCACAUGAUGAUGCCUGAAGAGCCUUGGUUUUUUG [G71A C82A C89U]	-1.01
GACAAAUUUGCCCUCAGAGCUCGAGAACAUCUUCGGAUGCAGAGGAGGCAGGCUUCGGUGGCGCGAUAGCGCCAACGUCCUCAACCUCCAAUGCAUCCCACCACAUGAUGAUGCCUGAAGAGCCUUGGUUUUUUG [C4A C8U]	-0.352
GACCAACCUGCCCUCAGAGCUCGAGAACAUCUUCGGAUGCAGAGGAGGCAGGCUUCGGUGGCGCGAUAGCGCCAACGUCCUCAACCUCCAAUGCAUCCCACCACAUGAUGAUGCCUGAAGAGCGUUGGUUUUUUG [U7C C124G]	1.82
GACCAAUCUGUCCUCAGAGCUCGAGAACAUCUUCGGAUCCAGAGGAGGCAGGCUUCGGCGGCGCGAUAGCGCCAACGUCCACAGCCUCCAAUGCAUCCCACCACAUGAUGAUGCCUGAAGAGCCUUGGUUUUUUG [C11U G39C U59C U81A A84G]	-3.33
GACCAAUCUGCCCUCAGAGCUCGAGAACAUCUUCGGAUGCAGAGGAGGCAGGCUUCGGUGGCGCGAUAGCGCCAACGUCCUCAACUUCCAAUGCAACCCACCACAGGAUGAUGCCUGAAGAGCCUUGGUUUUUUG [C86U U96A U106G]	-4.25
GACCAAUCUGCCCUCAGAGCUCGAGAACAUCUUCGGAUGCAGAGGAGGCAGGCUUCGGUGGCGCGAUAGUGCCAACGUCCUCAAACUCCAAUGCAUCCCACAACAUGAUGAUGCCUGAAGAGCCUUGGUUUUUUG [C70U C85A C102A]	-5.05
GACCAAUCUGCCCUCAGAGCUCGAGAACAUCUUCGGAUGCAGAGGAGGCAGGCUUCGGUGGCGCGAUAGCGCCAACGUCCUCAACCUCCAAUGCAUCCCACCGCAUGAUGAUGCCUGGAGAGCGUUGGUUUUUUG [A103G A118G C124G]	-5.79
GACCAAUCUGCCCUCAGAGCUCGAGAACAUCUUCGGAUGCAGAGGAGACAGGCUUCGGUGGCGCGAUAGCGCCAACGUCCUCAACCUCCAAUGCAUCCCACCACAUGAUGAUGCAUGAAGAGCCUUGGUUUUUUG [G48A C115A]	-1.47
GACCAAUCUGCCCUCAGAGCUCGAGAACAUCUUCGGAUGCAGAGGAGGCAGGCUUCGGUGGCGAGAUAGCGCCAACGUCCUCAACCUCCAAUGCAUCCCACCACACGAUGAUGCCUGAAGAGCCUUGGUUUUUUG [C64A U106C]	-6.82
GACCAAUCUGCCCUCAGAGCUCGAGAACAUCUUCGGAUGCAGAGGAGGCAGGCUUCGCUGGCGCGAUAGCGCCAACGUCCUCAACCUCCAAUGCAUCACACCACAUGAUGAUGCCUGAAGAGCCUUGGUUUUUUG [G58C C98A]	-5.61
GACCAAUCUGCCUUCAGCGCUCGAGAACAUCUUCGGAUGCAGAGGAGGCAGGCUUCGGUGGCGCGAUAGCGCCAACGUCCUCAACCUCCCAUGCAACCCACCACAUGAUGAUGCCUGAAGAGCCUUGGUUUUUUG [C13U A18C A90C U96A]	-2.27
GACCAAUCUGCCCUCAGAGCUCGAGAACAUCUUCGGAUGCAGAGGUGGCAGUCUUCGGUGGCGCGAUAGCGCCAACGUCCUCAACCUCCAAUGCAUCCCACCAUAUGAUAAUGCCUGAAGAGCCUUGGUUUUUUG [A46U G52U C104U G110A]	-3.02
GACCAAUCUGCCCUCAGAGCUCGAGAACAUCUUCGGAUGCAGAGGAGGCAGGCUUCGGUGGCGCGAUAGCGCCAACGUCCUCUACCUCCAAUGCAUCCCACCACAUGAUGAUGCCUGAAGAGCCUUGGUUUCUUG [A83U U132C]	-0.0917
GACCAAUCUGCCCUCAGAGCUCGAGAACAUCUUCGGAUGCAGAGGGGGCAGGCUUCGGUGGCGCGAUAGCUCCAACGUCCUCAACCUCCAAUGCAUCCCACCACAUGAUGAUGCCUGAAGAGCCUUGGUUUUUUG [A46G G71U]	-1.19
GACCAAUCUGCCCUCAGAGCUCGAGAACAUCUUCGGAUGCAGAGGAUGCAGGCUUCGGUAGCGCGAUAGCGCCAACGUCCUCAACCUCCAAUGCAUCCCACCACAUGAUGAUGCCUGAAGAGCCUUGGUUUUUUG [G47U G60A]	-1.93
GACCAAUCUGCCCUCAGAGCUCGAGAACAUCUUCGGAUGCAGAGGAGGCAGGCUUCGGUGGCGCGAUAGCGCCAACGUCCUCAACCCCCAAUGCAUCCCACCACAUGAUGAUGUCUGAAGAGCCUUGGUUUUUUG [U87C C114U]	-1.5
GACCAAUCUGCCCUCAGAGCUCGAGAACAUCUUCGGAUGCAGAGGAGGCCGGCUUCGGUGGCGCGAUAGCACCAACUUCCUCAACCUCCAAUGCAUCCCACCACAUGAUGAUGCCUGAACAGCCUUGGUUUUUUG [A50C G71A G77U G120C]	-1.85
